The test system of this test is human HL60 cells. Briefly: SWATH-MS proteomics, differential protein representation, akirin2 KO vs WT HL60 cells. In kind it is cell-based. To be noted: SWATH-MS, akirin2 KO vs WT HL60 cells, under-represented in KO. The method, boiled down: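 WT and akirin2 KO HL60 lysates (150 µg, n=3 biological replicates) were FASP trypsin-digested and desalted. A spectral library was built by IDA from 3 µg digests, then 5 µg per sample went to variable-window SWATH DIA over a 120-min 5–30% acetonitrile gradient. Identifications were accepted at 1% global FDR, with total-area-sum normalization.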

The text below walks through data of PMC8298264, “Function of cofactor Akirin2 in the regulation of gene expression in model human neutrophil-like HL60 cells” (Bioscience Reports, 2021).

B1: sp¦O75533¦SF3B1_HUMAN (protein, UniProt O75533 1-1304, looked up)
Splicing factor 3B subunit 1: MAKIAKTHEDIEAQIREIQGKKAALDEAQGVGLDSTGYYDQEIYGGSDSRFAGYVTSIAATELEDDDDDYSSSTSLLGQKKPGYHAPVALLNDIPQSTEQYDPFAEHRPPKIADREDEYKKHRRTMIISPERLDPFADGGKTPDPKMNARTYMDVMREQHLTKEEREIRQQLAEKAKAGELKVVNGAAASQPPSKRKRRWDQTADQTPGATPKKLSSWDQAETPGHTPSLRWDETPGRAKGSETPGATPGSKIWDPTPSHTPAGAATPGRGDTPGHATPGHGGATSSARKNRWDETPKTERDTPGHGSGWAETPRTDRGGDSIGETPTPGASKRKSRWDETPASQMGGSTPVLTPGKTPIGTPAMNMATPTPGHIMSMTPEQLQAWRWEREIDERNRPLSDEELDAMFPEGYKVLPPPAGYVPIRTPARKLTATPTPLGGMTGFHMQTEDRTMKSVNDQPSGNLPFLKPDDIQYFDKLLVDVDESTLSPEEQKERKIMKLLLKIKNGTPPMRKAALRQITDKAREFGAGPLFNQILPLLMSPTLEDQERHLLVKVIDRILYKLDDLVRPYVHKILVVIEPLLIDEDYYARVEGREIISNLAKAAGLATMISTMRPDIDNMDEYVRNTTARAFAVVASALGIPSLLPFLKAVCKSKKSWQARHTGIKIVQQIAILMGCAILPHLRSLVEIIEHGLVDEQQKVRTISALAIAALAEAATPYGIESFDSVLKPLWKGIRQHRGKGLAAFLKAIGYLIPLMDAEYANYYTREVMLILIREFQSPDEEMKKIVLKVVKQCCGTDGVEANYIKTEILPPFFKHFWQHRMALDRRNYRQLVDTTVELANKVGAAEIISRIVDDLKDEAEQYRKMVMETIEKIMGNLGAADIDHKLEEQLIDGILYAFQEQTTEDSVMLNGFGTVVNALGKRVKPYLPQICGTVLWRLNNKSAKVRQQAADLISRTAVVMKTCQEEKLMGHLGVVLYEYLGEEYPEVLGSILGALKAIVNVIGMHKMTPPIKDLLPRLTPILKNRHEKVQENCIDLVGRIADRGAEYVSAREWMRICFELLELLKAHKKAIRRATVNTFGYIAKAIGPHDVLATLLNNLKVQERQNRVCTTVAIAIVAETCSPFTVLPALMNEYRVPELNVQNGVLKSLSFLFEYIGEMGKDYIYAVTPLLEDALMDRDLVHRQTASAVVQHMSLGVYGFGCEDSLNHLLNYVWPNVFETSPHVIQAVMGALEGLRVAIGPCRMLQYCLQGLFHPARKVRDVYWKIYNSIYIGSQDALIAHYPRIYNDDKNTYIRYELDYIL
Turning to B1, the “Fold Change” value is listed as 0.7121 and the “Log (Fold Change)” value is -0.1475.

B2: sp¦Q9UFN0¦NPS3A_HUMAN (protein, UniProt Q9UFN0 1-247, looked up)
Protein NipSnap homolog 3A: MLVLRSALTRALASRTLAPQMCSSFATGPRQYDGIFYEFRSYYLKPSKMNEFLENFEKNAHLRTAHSELVGYWSVEFGGRMNTVFHIWKYDNFAHRTEVRKALAKDKEWQEQFLIPNLALIDKQESEITYLVPWCKLEKPPKEGVYELATFQMKPGGPALWGDAFKRAVHAHVNLGYTKLVGVFHTEYGALNRVHVLWWNESADSRAAGRHKSHEDPRVVAAVRESVNYLVSQQNMLLIPTSFSPLK
Turning to B2, the “Fold Change” value came to 0.7109 and the “Log (Fold Change)” value was -0.1482.
